Assays:
[1] = biological target: T1, EBOV glycoprotein lacking the transmembrane domain (Kikwit) (Zaire ebolavirus, Kikwit-95, UniProt P87666); assay: ELISA; conditions: both partners purified
[2] = biological target: T1, EBOV glycoprotein lacking the …; assay: cell-based or functional assay

T1 sequence (P87666 33-650): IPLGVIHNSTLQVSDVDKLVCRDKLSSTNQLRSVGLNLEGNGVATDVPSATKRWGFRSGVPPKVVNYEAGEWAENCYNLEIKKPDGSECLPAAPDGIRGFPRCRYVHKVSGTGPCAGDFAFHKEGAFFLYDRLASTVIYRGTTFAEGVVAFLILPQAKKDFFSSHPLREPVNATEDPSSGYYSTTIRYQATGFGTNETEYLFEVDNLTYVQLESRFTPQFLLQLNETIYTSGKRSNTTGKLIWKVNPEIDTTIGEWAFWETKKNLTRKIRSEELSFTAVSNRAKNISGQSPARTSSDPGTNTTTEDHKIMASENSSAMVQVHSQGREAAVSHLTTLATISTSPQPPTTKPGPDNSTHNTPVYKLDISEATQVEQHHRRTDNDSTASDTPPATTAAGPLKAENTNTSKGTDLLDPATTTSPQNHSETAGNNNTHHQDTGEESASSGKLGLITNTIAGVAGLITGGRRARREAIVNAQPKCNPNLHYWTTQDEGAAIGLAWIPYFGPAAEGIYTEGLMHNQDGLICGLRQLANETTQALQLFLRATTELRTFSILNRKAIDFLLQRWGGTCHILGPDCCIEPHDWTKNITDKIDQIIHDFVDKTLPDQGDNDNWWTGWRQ

B1: KZ52 (human EBOV mAb, monospecific IgG1) (antibody, V domains shown)
VH: EVQLLESGGGLVKPGGSLRLSCAASGFTLINYRMNWVRQAPGKGLEWVSSISSSSSYIHYADSVKGRFTISRDNAENSLYLQMNSLRAEDTAVYYCVREGPRATGYSMADVFDIWGQGTMVTVSS
VL: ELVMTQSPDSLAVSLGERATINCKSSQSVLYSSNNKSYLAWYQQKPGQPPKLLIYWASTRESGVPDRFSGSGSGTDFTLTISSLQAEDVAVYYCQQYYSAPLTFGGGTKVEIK
notes: also called KZ52 IgG1; monospecific KZ52
[1]
  EC50: 0.01 nM
[2]
  IC50 of neutralisation of VSV-GP_(EBOV), infection of Vero cells (eGFP): 2.7 nM

Reference: publication PMC4725817 (Scientific Reports, 2016)
